From PMC11467045, “The hGID^GID4 E3 ubiquitin ligase complex targets ARHGAP11A to regulate cell migration” (Life Science Alliance, 2024) come the findings set out here.

Assay [1] has as its target T1, GID4^Δ1–115 (human, UniProt Q8IVV7 116-300).
T1 construct: also called recombinant GID4 lacking its N-terminal domain; source: E. coli Rosetta 2(DE3)pLysS, purified (Strep-Tactin, Ulp1 cleavage, size-exclusion chromatography); not shown: 2xStrepII, N-terminal, cleaved; Smt3, N-terminal, cleaved
T1 sequence (looked up): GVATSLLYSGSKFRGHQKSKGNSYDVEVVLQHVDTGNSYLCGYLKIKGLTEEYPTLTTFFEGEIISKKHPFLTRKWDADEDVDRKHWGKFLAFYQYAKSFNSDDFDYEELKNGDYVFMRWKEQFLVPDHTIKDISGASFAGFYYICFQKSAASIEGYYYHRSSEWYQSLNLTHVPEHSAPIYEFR
As to the kind of experiment: fluorescence polarisation; competition: 20 μM GID4^Δ1–115 and 20 nM PGLWKS-TAMRA, 10 min with twofold dilutions of unlabeled peptides in FP buffer; log(inhibitor) versus response, variable slope. The note with it: both partners purified.

Assay [2] addresses T1, GID4^Δ1–115. As to the kind of experiment: fluorescence polarisation; saturation binding: 20 nM TAMRA-labeled peptide with indicated GID4^Δ1–115 concentrations, 10 min, FP buffer (20 mM MOPS pH 7.6, 100 mM NaCl, 25 mM D-trehalose, 1% glycerol, 0.01% Triton X-100, 0.1 g/l BSA); one site-specific binding model. The following applies: both partners purified.

Where no end group is shown, it is not given here.

B1: PGKLRSDAG (peptide)
peptide: PGKLRSDAG
notes: amino terminus of DDX21 (Owens et al, 2024), without the initiator methionine; also called N-terminal peptide of DDX21
Molecule B1 came in with a concentration for half-maximal inhibition (IC50) with GID4^Δ1–115 [1] of 83.4 µM.

B2: unlabeled PGLWKS (peptide)
peptide: PGLWKS
notes: control degron peptide, unlabeled
Consider B2, for which, in the assay with GID4^Δ1–115 [1], the half-inhibitory concentration (IC50) amounted to 30.3 µM.

B3: PGLWKS-TAMRA (peptide)
peptide: PGLWKS-{TAMRA}
notes: control degron peptide (Dong et al, 2018); also called TAMRA-labeled control peptide PGLWKS
Turning to B3, the Kd with GID4^Δ1–115 [2] came out at 2.4 µM.
